Blank lines part the entries; values can stand above or below the binder they belong to.
What was measured:
[1] = biological target: T1, ADI-50024; test: SPR Carterra avidity, yeast anti-ID
T1 construct: anti-CD3 antibody made in CHO cells, captured by anti-human Fc
Procedure: (§1) Kinetic analysis was conducted at 25° C. in an HBSTE running buffer system (Carterra Cat #3630) using a Carterra LSA (Carterra USA, Salt Lake City, UT). The sample compartment was maintained at 20° C. for the duration of each experiment.
(§2) For antibody capture experiments, a goat anti-human Fc antibody (Jackson ImmunoResearch) was covalently coupled to an HC30M sensor chip surface via standard amine coupling (1:1 EDC:NHS) and then blocked with ethanolamine (1.0 M, pH 8.5). Covalent coupling steps were performed in 25 mM MES buffer (Carterra, Cat #3625) plus 0.05% Tween20. The anti-CD3 antibodies (100 nM in running buffer) were flowed over discrete regions of interest on the chip surface for 5 minutes. […] Dissociation of the anti-idiotype antibodies was monitored for 300s. Several blank buffer samples were injected over the entire chip surface at the start of each non-regenerative kinetic cycle. The preceding blank buffer injection was used for blank surface subtraction. At the end of each non-regenerative kinetic cycle, all surfaces were regenerated via two 30s injections of 10 mM glycine, pH 1.7.
(§3) For data processing and fitting, sensorgrams were double reference subtracted with a baseline drift correction of 4 RU. Sensorgrams were y-aligned and baseline corrected, filtered and cropped to include only the association and dissociation steps. Data was fitted to a 1:1 binding model using Carterra Kinetics Data Analysis software version 1.7.1.3055.

[2] = biological target: T2, ADI-70326; test: SPR Carterra avidity, yeast anti-ID
T2 construct: anti-CD3 antibody made in CHO cells, captured by anti-human Fc
Procedure: as §1, §2, §3

[3] = biological target: T3, ADI-70327; test: SPR Carterra avidity, yeast anti-ID
T3 construct: anti-CD3 antibody made in CHO cells, captured by anti-human Fc
Procedure: as §1, §2, §3

[4] = biological target: T4, ADI-70330; test: SPR Carterra avidity, yeast anti-ID
T4 construct: anti-CD3 antibody made in CHO cells, captured by anti-human Fc
Procedure: as §1, §2, §3

[5] = biological target: T5, ADI-26906 IgG; test: SPR Carterra avidity, yeast anti-ID
T5 construct: anti-CD3 IgG
Procedure: as §1, §2, §3

[6] = biological target: T6, ADI-67450; test: SPR Carterra avidity, yeast anti-ID
T6 construct: anti-CD3 antibody made in CHO cells, captured by anti-human Fc
Procedure: as §1, §2, §3

[7] = biological target: T7, ADI-67445; test: SPR Carterra avidity, yeast anti-ID
T7 construct: anti-CD3 antibody made in CHO cells, captured by anti-human Fc
Procedure: as §1, §2, §3

[8] = biological target: T8, ADI-67447; test: SPR Carterra avidity, yeast anti-ID
T8 construct: anti-CD3 antibody made in CHO cells, captured by anti-human Fc
Procedure: as §1, §2, §3

[9] = biological target: T9, ADI-26909; test: SPR Carterra avidity, yeast anti-ID
T9 construct: anti-CD3 antibody made in CHO cells, captured by anti-human Fc
Procedure: as §1, §2, §3

[10] = biological target: T10, ADI-26913 IgG; test: SPR Carterra avidity, yeast anti-ID
T10 construct: anti-CD3 IgG
Procedure: as §1, §2, §3

[11] = biological target: T11, ADI-26919; test: SPR Carterra avidity, yeast anti-ID
T11 construct: anti-CD3 antibody made in CHO cells, captured by anti-human Fc
Procedure: as §1, §2, §3

[12] = biological target: T12, ADI-26916 IgG; test: SPR Carterra avidity, yeast anti-ID
T12 construct: anti-CD3 IgG
Procedure: as §1, §2, §3

[13] = biological target: T13, ADI-26912; test: SPR Carterra avidity, yeast anti-ID
T13 construct: anti-CD3 antibody made in CHO cells, captured by anti-human Fc
Procedure: as §1, §2, §3

[14] = biological target: T14, ADI-26924; test: SPR Carterra avidity, yeast anti-ID
T14 construct: anti-CD3 antibody made in CHO cells, captured by anti-human Fc
Procedure: as §1, §2, §3

[15] = biological target: T15, ADI-26915; test: SPR Carterra avidity, yeast anti-ID
T15 construct: anti-CD3 antibody made in CHO cells, captured by anti-human Fc
Procedure: as §1, §2, §3

[16] = biological target: T16, ADI-26943; test: SPR Carterra avidity, yeast anti-ID
T16 construct: anti-CD3 antibody made in CHO cells, captured by anti-human Fc
Procedure: as §1, §2, §3

[17] = biological target: T17, ADI-48576; test: SPR Carterra avidity, yeast anti-ID
T17 construct: pH-dependent anti-CD3 antibody made in CHO cells
Procedure: as §1, §2, §3

[18] = biological target: T18, ADI-48587; test: SPR Carterra avidity, yeast anti-ID
T18 construct: pH-dependent anti-CD3 antibody made in CHO cells
Procedure: as §1, §2, §3

[19] = biological target: T19, ADI-48592; test: SPR Carterra avidity, yeast anti-ID
T19 construct: pH-dependent anti-CD3 antibody made in CHO cells
Procedure: as §1, §2, §3

[20] = biological target: T20, ADI-48650; test: SPR Carterra avidity, yeast anti-ID
T20 construct: pH-dependent anti-CD3 antibody made in CHO cells
Procedure: as §1, §2, §3

[21] = biological target: T21, ADI-74965; test: SPR Carterra avidity, yeast anti-ID
T21 construct: pH-dependent anti-CD3 antibody made in CHO cells
Procedure: as §1, §2, §3

[22] = biological target: T22, ADI-74966; test: SPR Carterra avidity, yeast anti-ID
T22 construct: pH-dependent anti-CD3 antibody made in CHO cells
Procedure: as §1, §2, §3

[23] = biological target: T23, ADI-74968; test: SPR Carterra avidity, yeast anti-ID
T23 construct: pH-dependent anti-CD3 antibody made in CHO cells
Procedure: as §1, §2, §3

[24] = biological target: T24, ADI-76357; test: SPR Carterra avidity, yeast anti-ID
T24 construct: anti-CD3 antibody made in CHO cells, captured by anti-human Fc
Procedure: as §1, §2, §3

[25] = biological target: T25, ADI-76358; test: SPR Carterra avidity, yeast anti-ID
T25 construct: anti-CD3 antibody made in CHO cells, captured by anti-human Fc
Procedure: as §1, §2, §3

[26] = biological target: T26, ADI-76360; test: SPR Carterra avidity, yeast anti-ID
T26 construct: anti-CD3 antibody made in CHO cells, captured by anti-human Fc
Procedure: as §1, §2, §3

[27] = biological target: T27, ADI-76361; test: SPR Carterra avidity, yeast anti-ID
T27 construct: anti-CD3 antibody made in CHO cells, captured by anti-human Fc
Procedure: as §1, §2, §3

[28] = biological target: T28, ADI-76362; test: SPR Carterra avidity, yeast anti-ID
T28 construct: anti-CD3 antibody made in CHO cells, captured by anti-human Fc
Procedure: as §1, §2, §3

[29] = biological target: T29, CTL-62223; test: SPR Carterra avidity, yeast anti-ID
T29 construct: also called mosunetuzumab
Procedure: as §1, §2, §3

[30] = biological target: T30, ADI-22523 Fab; test: BLI; tip anti-ID IgG, solution ADI-22523 Fab
T30 construct: anti-CD3 Fab by papain digestion of the IgG
Procedure: (§4) ForteBio affinity measurements were performed generally as previously described (Estep et al., MAbs. 2013 5(2):270-8). Briefly, ForteBio affinity measurements were performed by loading antibody IgG or Fabs on-line onto AHC sensors. Sensors were equilibrated off-line in assay buffer for 30 minutes and then monitored on-line for 60 seconds for baseline establishment. For avid binding measurement, sensors with loaded antibodies were exposed to IgG or Fab solutions for 3 minutes, afterwards they were transferred to assay buffer for 3 minutes for off-rate measurement. Kinetics data were fit using a 1:1 binding model in the data analysis software provided by ForteBio to obtain equilibrium dissociation constant (KD=koff/kₒₙ) values. In each column, tip-immobilized antibodies are listed first and solution antibodies second.

[31] = biological target: T31, ADI-22523 IgG; test: BLI; tip anti-ID IgG, solution ADI-22523 IgG
T31 construct: anti-CD3 IgG
Procedure: as §4

[32] = biological target: T32, ADI-26920 IgG; test: SPR Carterra avidity, yeast anti-ID, *koff limit
T32 construct: anti-CD3 IgG
Procedure: as §1, §2, §3

[33] = biological target: T33, ADI-26921 IgG; test: SPR Carterra avidity, yeast anti-ID, *koff limit
T33 construct: anti-CD3 IgG
Procedure: as §1, §2, §3

[34] = biological target: T34, ADI-74967; test: SPR Carterra avidity, yeast anti-ID, *koff limit
T34 construct: pH-dependent anti-CD3 antibody made in CHO cells
Procedure: as §1, §2, §3

[35] = biological target: T35, ADI-76359; test: SPR Carterra avidity, yeast anti-ID, *koff limit
T35 construct: anti-CD3 antibody made in CHO cells, captured by anti-human Fc
Procedure: as §1, §2, §3

T31 sequence (VH, as listed by the source limits assumed, chain 1 of 2): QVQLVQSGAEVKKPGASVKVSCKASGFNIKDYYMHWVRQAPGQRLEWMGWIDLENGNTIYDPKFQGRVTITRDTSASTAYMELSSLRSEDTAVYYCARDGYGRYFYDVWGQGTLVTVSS
T31 sequence (VL, as listed by the source limits assumed, chain 2 of 2): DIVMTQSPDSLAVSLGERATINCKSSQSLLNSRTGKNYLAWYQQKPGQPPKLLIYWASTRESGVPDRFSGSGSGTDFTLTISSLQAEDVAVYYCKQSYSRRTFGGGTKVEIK
T10 sequence (VH, as listed by the source limits assumed, chain 1 of 2): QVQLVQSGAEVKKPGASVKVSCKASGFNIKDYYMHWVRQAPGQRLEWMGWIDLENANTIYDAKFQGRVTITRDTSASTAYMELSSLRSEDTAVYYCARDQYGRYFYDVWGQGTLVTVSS
T10 sequence (VL, as listed by the source limits assumed, chain 2 of 2): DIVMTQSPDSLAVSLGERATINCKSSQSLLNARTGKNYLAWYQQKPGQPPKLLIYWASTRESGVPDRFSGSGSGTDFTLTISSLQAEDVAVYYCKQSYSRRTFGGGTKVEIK
T19 sequence (VH, as listed by the source, chain 1 of 2): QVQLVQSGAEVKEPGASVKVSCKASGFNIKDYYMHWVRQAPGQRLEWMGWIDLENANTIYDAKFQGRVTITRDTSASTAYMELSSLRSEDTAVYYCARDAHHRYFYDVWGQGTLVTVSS
T19 sequence (VL, as listed by the source, chain 2 of 2): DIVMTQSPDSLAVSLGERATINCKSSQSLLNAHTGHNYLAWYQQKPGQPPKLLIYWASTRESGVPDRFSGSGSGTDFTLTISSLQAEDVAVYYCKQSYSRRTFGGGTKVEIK
T26 sequence (VH, as listed by the source, chain 1 of 2): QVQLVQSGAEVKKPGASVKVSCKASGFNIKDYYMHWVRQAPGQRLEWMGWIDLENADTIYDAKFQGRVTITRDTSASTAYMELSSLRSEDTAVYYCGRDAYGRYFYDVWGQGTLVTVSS
T26 sequence (VL, as listed by the source, chain 2 of 2): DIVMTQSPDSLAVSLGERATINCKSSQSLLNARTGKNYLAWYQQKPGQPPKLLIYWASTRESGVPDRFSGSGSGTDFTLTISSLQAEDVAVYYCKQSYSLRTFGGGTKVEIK
T35 sequence (VH, as listed by the source, chain 1 of 2): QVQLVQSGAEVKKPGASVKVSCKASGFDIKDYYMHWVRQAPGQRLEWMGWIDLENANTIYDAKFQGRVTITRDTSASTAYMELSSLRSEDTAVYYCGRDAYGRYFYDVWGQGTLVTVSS
T3 sequence (VH, as listed by the source limits assumed, chain 1 of 2): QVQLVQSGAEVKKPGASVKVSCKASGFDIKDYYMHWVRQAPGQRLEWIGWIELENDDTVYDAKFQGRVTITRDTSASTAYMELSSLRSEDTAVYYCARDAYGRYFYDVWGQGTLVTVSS
T3 sequence (VL, as listed by the source limits assumed, chain 2 of 2): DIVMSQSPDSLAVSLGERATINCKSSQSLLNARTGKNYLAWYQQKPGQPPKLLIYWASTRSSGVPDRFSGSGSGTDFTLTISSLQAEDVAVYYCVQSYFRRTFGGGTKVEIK
T9 sequence (VH, as listed by the source limits assumed, chain 1 of 2): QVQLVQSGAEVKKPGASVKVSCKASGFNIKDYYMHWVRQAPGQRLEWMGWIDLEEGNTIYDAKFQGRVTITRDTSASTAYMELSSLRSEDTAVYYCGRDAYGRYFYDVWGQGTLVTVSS
T15 sequence (VH, as listed by the source, chain 1 of 2): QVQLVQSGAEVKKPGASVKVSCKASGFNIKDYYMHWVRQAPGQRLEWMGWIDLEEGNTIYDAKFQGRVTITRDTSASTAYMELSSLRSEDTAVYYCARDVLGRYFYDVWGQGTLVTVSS
T23 sequence (VH, as listed by the source, chain 1 of 2): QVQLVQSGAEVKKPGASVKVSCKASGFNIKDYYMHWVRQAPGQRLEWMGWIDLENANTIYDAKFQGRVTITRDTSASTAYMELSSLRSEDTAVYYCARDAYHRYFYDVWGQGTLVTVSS
T23 sequence (VL, as listed by the source, chain 2 of 2): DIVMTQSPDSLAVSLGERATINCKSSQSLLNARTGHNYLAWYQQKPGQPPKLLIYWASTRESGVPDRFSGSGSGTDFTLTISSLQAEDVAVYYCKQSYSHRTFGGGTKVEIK
T21 sequence (VL, as listed by the source, chain 2 of 2): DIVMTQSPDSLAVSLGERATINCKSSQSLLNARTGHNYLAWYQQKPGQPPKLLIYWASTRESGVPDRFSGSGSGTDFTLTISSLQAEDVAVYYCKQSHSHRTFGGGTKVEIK
T7 sequence (VH, as listed by the source limits assumed, chain 1 of 2): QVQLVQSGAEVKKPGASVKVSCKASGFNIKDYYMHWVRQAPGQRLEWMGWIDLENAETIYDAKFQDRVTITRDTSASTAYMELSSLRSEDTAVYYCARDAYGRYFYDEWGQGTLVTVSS
T17 sequence (VH, as listed by the source, chain 1 of 2): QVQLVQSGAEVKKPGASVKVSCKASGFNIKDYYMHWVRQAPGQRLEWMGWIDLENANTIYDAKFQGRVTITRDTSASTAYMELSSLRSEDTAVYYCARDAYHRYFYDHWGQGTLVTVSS
T17 sequence (VL, as listed by the source, chain 2 of 2): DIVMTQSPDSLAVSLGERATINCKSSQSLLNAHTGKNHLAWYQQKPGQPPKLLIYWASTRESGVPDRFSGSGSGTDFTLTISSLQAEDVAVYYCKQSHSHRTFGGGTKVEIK
T4 sequence (VH, as listed by the source limits assumed, chain 1 of 2): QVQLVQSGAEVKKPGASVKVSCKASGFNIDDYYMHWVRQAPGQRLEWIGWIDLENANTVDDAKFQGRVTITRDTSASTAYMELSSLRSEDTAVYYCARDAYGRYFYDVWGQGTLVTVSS
T8 sequence (VH, as listed by the source limits assumed, chain 1 of 2): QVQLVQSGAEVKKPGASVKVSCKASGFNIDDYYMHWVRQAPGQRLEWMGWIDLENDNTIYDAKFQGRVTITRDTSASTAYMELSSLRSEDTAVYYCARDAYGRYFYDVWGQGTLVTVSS
T1 sequence (VH, as listed by the source limits assumed, chain 1 of 2): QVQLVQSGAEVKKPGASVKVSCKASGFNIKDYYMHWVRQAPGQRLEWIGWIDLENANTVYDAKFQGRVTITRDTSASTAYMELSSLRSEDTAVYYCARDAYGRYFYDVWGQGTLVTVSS
T27 sequence (VH, as listed by the source, chain 1 of 2): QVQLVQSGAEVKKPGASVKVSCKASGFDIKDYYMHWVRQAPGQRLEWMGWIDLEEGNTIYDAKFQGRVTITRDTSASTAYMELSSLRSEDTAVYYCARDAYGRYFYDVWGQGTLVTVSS
T24 sequence (VH, as listed by the source, chain 1 of 2): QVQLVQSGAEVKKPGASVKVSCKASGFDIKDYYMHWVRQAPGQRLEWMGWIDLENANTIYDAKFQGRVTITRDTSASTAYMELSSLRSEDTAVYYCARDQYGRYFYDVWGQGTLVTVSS

Kd [1]: 0.39 nM
binding result [2]: binds
Kd [3]: 0.95 nM
Kd [4]: 0.3 nM
Kd [5]: 0.33 nM
Kd [6]: 0.92 nM
Kd [7]: 0.37 nM
Kd [8]: 0.22 nM
Kd [9]: 0.32 nM
Kd [10]: 0.3 nM
Kd [11]: 0.14 nM
Kd [12]: 0.31 nM
binding result [13]: binds
Kd [14]: 0.19 nM
Kd [15]: 14 nM
Kd [16]: 0.17 nM
binding result [17]: binds
Kd [18]: 0.88 nM
binding result [19]: binds
binding result [20]: binds
binding result [21]: binds
Kd [22]: 0.21 nM
Kd [23]: 0.76 nM
Kd [24]: 0.086 nM
Kd [25]: 0.96 nM
Kd [26]: 0.082 nM
Kd [27]: 0.054 nM
Kd [28]: 0.22 nM
Kd [29]: 1.8 nM
Kd [30]: 14.8 nM
Kd [31]: 0.63 nM
Kd [32]: 0.088 nM
Kd [33]: 0.048 nM
Kd [34]: 0.12 nM
Kd [35]: 0.059 nM
B1: ADI-34137 (antibody, V domains shown)
VH: QVQLVQSGAEVKKPGSSVKVSCKASGGTFSSYAISWVRQAPGQGLEWMGGIIPIFGTANYAQKFQGRVTITADESTSTAYMELSSLRSEDTAVYYCARGAPNYYGSGGYDDGWFDPWGQGTLVTVSS
VL: EIVLTQSPGTLSLSPGERATLSCRASQSVSSSYLAWYQQKPGQAPRLLIYGASSRATGIPDRFSGSGSGTDFTLTISRLEPEDFAVYYCQQFGRFPTFGGGTKVEIK
notes: anti-ID IgG

Kd [30]: 12.5 nM
Kd [31]: 2.99 nM
B2: ADI-34139 (antibody, V domains shown)
VH: EVQLLESGGGLVQPGGSLRLSCAASGFTFSSYAMSWVRQAPGKGLEWVSTISGSGGSTYYADSVKGRFTISRDNSKNTLYLQMNSLRAEDTAVYYCARLGGRRGSGSSYYYYYGMDVWGQGTTVTVSS
VL: not shown
notes: anti-ID IgG

Kd [30]: 18.9 nM
Kd [31]: 2.9 nM
B3: ADI-34140 (antibody, V domains shown)
VH: B2 VH
VL: not shown
notes: anti-ID IgG

Reference: patent US20250019439A1 (Adimab, published 2025)
